Assay [1] concerns the target T1, human Claudin 9 (human, UniProt O95484 1-217).
T1 construct: whole, on cells; also called CLDN9; CLND9
T1 sequence (looked up): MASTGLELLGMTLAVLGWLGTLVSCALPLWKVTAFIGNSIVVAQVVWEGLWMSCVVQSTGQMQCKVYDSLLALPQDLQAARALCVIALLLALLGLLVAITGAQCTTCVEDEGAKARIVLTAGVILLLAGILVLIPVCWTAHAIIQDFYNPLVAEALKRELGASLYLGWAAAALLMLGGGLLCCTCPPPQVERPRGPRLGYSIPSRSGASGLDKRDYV
The assay is described as follows: flow cytometry, HEK293/H_CLDN9 cells, Ab titrated from 100 nM.

Assay [2] has as its target T2, human Claudin 3 (human, UniProt O15551 1-220).
T2 construct: whole, on cells; also called CLDN3
T2 sequence (looked up): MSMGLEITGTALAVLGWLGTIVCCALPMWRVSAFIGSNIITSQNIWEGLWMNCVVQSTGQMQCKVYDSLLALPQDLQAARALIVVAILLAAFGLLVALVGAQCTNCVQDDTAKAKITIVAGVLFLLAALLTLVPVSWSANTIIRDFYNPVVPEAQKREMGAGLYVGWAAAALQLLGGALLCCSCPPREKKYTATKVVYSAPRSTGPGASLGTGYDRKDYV
The assay is described as follows: flow cytometry, CHOK1/H_CLDN3 cells, Ab titrated from 100 nM. The procedure: (§1) In this example, cell-based binding of hu Abs on human CLDN3 expressing cells were assessed using flow cytometry.
(§2) Briefly, the CHOK1/H_CLDN3 cells were incubated with hu-Abs (from 100 nM, 6 folds dilution, 8 points). After incubation at 4° C. for 60 minutes. Cells were pelleted and washed twice with 2% FBS/PBS buffer, and stained with fluorescent conjugated secondary antibody at 4° C. for 30 minutes. After that the cells were washed twice and resuspended in 80 μL of 2% FBS/PBS buffer. Fluorescent signal of binding was detected using Agilent. The EC50 was calculated using the GraphPad software.

For assay [3], the target named is T3, human Claudin 6 (human, UniProt P56747 1-220).
T3 sequence (looked up): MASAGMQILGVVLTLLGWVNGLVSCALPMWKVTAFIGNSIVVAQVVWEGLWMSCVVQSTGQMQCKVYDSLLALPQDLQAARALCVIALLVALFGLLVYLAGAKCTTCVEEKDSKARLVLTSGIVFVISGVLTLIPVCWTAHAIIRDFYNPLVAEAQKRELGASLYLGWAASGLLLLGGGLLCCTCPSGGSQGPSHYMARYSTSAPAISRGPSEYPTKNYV
As to the kind of experiment: flow cytometry, OVCAR3 cells (endogenous CLDN6), Ab titrated from 100 nM. On the procedure:
In this example, FACS binding of chimeric Abs to Ovcar3 and Ov90 cells with claudin 6 endogenous expression were assessed using flow cytometry.
Claudin 6 endogenous expression cell line were incubated with chimeric Abs (from 100 nM, 6-fold dilution, 8 points) for 60 minutes at 4° C. Cells were pelleted and washed twice with 2% FBS/PBS buffer, and stained with fluorescent conjugated secondary antibody at 4° C. for 30 minutes. After that the cells were washed twice and resuspended in 80 μL of 2% FBS/PBS buffer. Fluorescent signal of binding was detected using Agilent. The EC50 was calculated using the GraphPad software.
(A flow cytometer gives signals particle by particle.)

The target in assay [4] is T2, human Claudin 3. The assay is described as follows: flow cytometry, CHOK1/H_CLDN3 cells. On the procedure:
as §1, §2

Assay [5] addresses T3, human Claudin 6. The assay is described as follows: flow cytometry, HEK293/H_CLDN6 cells, Ab titrated from 100 nM. The procedure:
In this example, cell-based binding of humanized antibodies (hu Abs) on human CLDN6 expressing cells were assessed using flow cytometry.
Briefly, the HEK293/H_CLDN6 cells were incubated with hu-Abs (from 100 nM, 6 folds dilution, 8 points). After incubation at 4° C. for 60 minutes. Cells were pelleted and washed twice with 2% FBS/PBS buffer, and stained with fluorescent conjugated secondary antibody at 4° C. for 30 minutes. After that the cells were washed twice and resuspended in 80 μL of 2% FBS/PBS buffer. Fluorescent signal of binding was detected using Agilent. The EC50 was calculated using the GraphPad software.

Assay [6] addresses T3, human Claudin 6. As to the kind of experiment: cell-based or functional assay.
The target of assay [7] is T3, human Claudin 6. As to the kind of experiment: cell-based or functional assay. This is another data set of the same source.
Assay [8] has as its target T3, human Claudin 6. As to the kind of experiment: cell-based or functional assay. The source holds these as a separate data set.
Assay [9] concerns the target T3, human Claudin 6. The assay is described as follows: cell-based or functional assay. The source holds these as a separate data set.
Assay [10] addresses T3, human Claudin 6. The assay is described as follows: cell-based or functional assay. This is another data set of the same source.
Assay [11] addresses T3, human Claudin 6. As to the kind of experiment: flow cytometry, HEK293/H_CLDN6 cells, Ab titrated from 100 nM. On the procedure:
(§3) In this example, cell based binding of chimeric Abs on human CLDN6 & CLND9 over-expressing cell line were assessed using flow cytometry.
(§4) Briefly, the cells were incubated with chimeric Abs (from 100 nM, 6-fold dilution, 8 points) for 60 minutes at 4° C. Cells were pelleted and washed twice with 2% FBS/PBS buffer, and stained with fluorescent conjugated secondary antibody at 4° C. for 30 minutes. After that the cells were washed twice and resuspended in 80 μL of 2% FBS/PBS buffer. Fluorescent signal of binding was detected using Agilent. The EC50 was calculated using the GraphPad software (LaJolla, CA).
This is another data set of the same source.

Assay [12] has as its target T1, human Claudin 9. The assay is described as follows: flow cytometry, HEK293/H_CLDN9 cells, Ab titrated from 100 nM. The procedure: as §3, §4
This is another data set of the same source.

The target of assay [13] is T2, human Claudin 3. As to the kind of experiment: flow cytometry, CHOK1/CLDN3 cells. On the procedure:
In this example, cell based binding of chimeric antibody 97-C10E1-2 toward human CLDN3 overexpression cell line were assessed using flow cytometry.
Briefly, cells were incubated with chimeric antibody (from 100 nM, 6 folds dilution, 8 points). After incubation at 4° C. for 60 minutes. Cells were pelleted and washed twice with 2% FBS/PBS buffer, and stained with fluorescent conjugated secondary antibody at 4° C. for 30 minutes. After that the cells were washed twice and resuspended in 80 μL of 2% FBS/PBS buffer. Fluorescent signal of binding was detected using Agilent. The EC50 was calculated using the GraphPad Software.

Residue numbers refer to the chain shown, from its start. Where two headings read alike, the source gives them in different places.

On to hIgG1 Isotype (antibody), for which the Top MFI in the assay with human Claudin 9 [1] came to 140; with human Claudin 3 [2], 128; with human Claudin 6 [3] it was 126; with human Claudin 6 [3] (record 2), 101.

B1: 97-C10E1-2-P1.z9 (antibody, V domains shown)
VH: QVQLQQSGAEVKKPGASVKVSCKASGYAFTGYTMNWVRQAPGQNLEWIGLSNPYNAGTIYNQKFKGRVTLTVDKSTSTVYMELLSLRSEDTAVYYCARNYYYGSSYAYYYAMDYWGQGTTVTVSS
VL: DAQMTQSPSSLSASVGDRVTITCRSSTGAVTTSNYANWVQQKPGKAFKGLIGGTNNRAPGVPARFSGSLSGTDAALTISSLQPEDFATYFCALWYSNHWVFGGGTKVEIK
Regarding B1, in the assay with human Claudin 3 [4], the binding result was “no binding (tested: 100 nM (highest concentration tested))”. Also, the Top MFI with human Claudin 9 [1] stood at 5810; in the assay with human Claudin 3 [2], 297; with human Claudin 6 [5], 159000.

B2: z5-Eribulin (antibody, V domains shown)
VH: B1 VH with Q5V, N44G, L70M, L84S
VL: B1 VL with A2I, Q3V, M4V, A13T, Q41E, T72D, L81A
modifications: eribulin conjugated to the antibody; residues and drug load not stated
Turning to B2, the “cytotoxicity IC50 (nM), CLDN6 High Exp HEK293 cells, 5 days” value with human Claudin 6 [6] was found to be 0.1 nM. Besides, in the assay with human Claudin 6 [7], the “cytotoxicity IC50 (nM), OV90 cells, 5 days” value turned out to be 4.66 nM; the “cytotoxicity IC50 (nM), OVCAR3 cells, 5 days” value worked out at 0.11 nM; the “cytotoxicity IC50 (nM), PA-1 cells, 5 days” value is 0.46 nM.

B3: z5-MMAE (antibody, V domains shown)
VH: B1 VH with Q5V, N44G, L70M, L84S
VL: B1 VL with A2I, Q3V, M4V, A13T, Q41E, T72D, L81A
modifications: MMAE conjugated to the antibody; residues and drug load not stated
With B3, in the assay with human Claudin 6 [6], the “cytotoxicity IC50 (nM), CLDN6 High Exp HEK293 cells, 5 days” value was 0.1 nM. Besides, in the assay with human Claudin 6 [7], the “cytotoxicity IC50 (nM), OV90 cells, 5 days” value turned out to be 0.76 nM; the “cytotoxicity IC50 (nM), OVCAR3 cells, 5 days” value turned out to be 0.13 nM; the “cytotoxicity IC50 (nM), PA-1 cells, 5 days” value came to 0.11 nM. For the same molecule, in the assay with human Claudin 6 [8], the “Min cell viability, OV90 (CLDN6 low)” value amounted to 8%; the “Min cell viability, OVCAR-3 (CLDN6 mid)” value was 3.71%; the “Min cell viability, PA-1 (CLDN6 high)” value was determined as 4.88%.

B4: 97-C10E1-2-P1.z4 (antibody, V domains shown)
VH: B1 VH with Q5V, N44G, L70M, L84S
VL: B1 VL
As to B4, in the assay with human Claudin 3 [4], the binding result is recorded as “no binding (tested: 100 nM (highest concentration tested))”. For the same molecule, the Top MFI in the assay with human Claudin 9 [1] came to 9160; with human Claudin 3 [2], 263; with human Claudin 6 [5], 185000.

B5: 97-C10E1-2-P1.z7 (antibody, V domains shown)
VH: B1 VH
VL: EAVVTQSPATLSVSPGERATLSCRSSTGAVTTSNYANWVQEKPGQAFRGLIGGTNNRAPGIPARFSGSLSGDEATLTISSLQSEDFAVYFCALWYSNHWVFGGGTKVEIK
B5: in the assay with human Claudin 3 [4], the binding result is reported as “no binding (tested: 100 nM (highest concentration tested))”. The values for the Top MFI in the assay with human Claudin 9 [1], with human Claudin 3 [2] and with human Claudin 6 [5] were 1660, 249 and 181000, respectively.

B6: 67-C12E11 (antibody, V domains shown)
VH: EVQLQQSGPELVKPGASVKISCKTSGYTFTEYTMHWVKQSHGKSLEWIGGINPNNGGTSYNQKFKGKATLTVDKSSSTAYMELRSLTSEDSAVYYCARGMVVAFYFDSWGQGTTLTVSS
VL: DIQMTQSPASQSASLGESVTITCLASQTIGSWLAWYQQKPGKSPQLLIYAATSLADGVPSRFSGSGSGTKFSFKISSLQAEDFVSYYCQQLYSTPYTFGGGTKLEIK
notes: Tested as chimeric antibody
Consider B6, for which, in the assay with human Claudin 6 [9], the “internalization Top RLU (HEK293/H_CLDN6)” value is 446000 RLU. In addition, the “Inhibition Rate (%) (HEK293/H_CLDN6)” value in the assay with human Claudin 6 [10] was found to be 83.9%. The entries for the “Top MFI” value with human Claudin 6 [11], in the assay with human Claudin 9 [12] and in the assay with human Claudin 6 [3] were 161000, 28800 and 165, respectively.

B7: 97-C10E1-2 (antibody, V domains shown)
VH: EVQLQQSGPELVKPGASMKISCKASGYAFTGYTMNWVKQSHGKNLEWIGLSNPYNGGTIYNQKFKGKATLTVDKSSSTAYMELLSLTSEDSAVYYCARNYYYGSSYAYYYAMDYWGQGTSVTVSS
VL: QAVVTQESALTTSPGETVTLTCRSSTGAVTTSNYANWVQEKPDHLFTGLIGGTNNRAPGVPARFSGSLIGDKAALTITGAQTEDEAIYFCALWYSNHWVFGGGTKLTVL
notes: Tested as chimeric antibody; also called chimeric antibody 97-C10E1-2
As for B7, the “internalization Top RLU (HEK293/H_CLDN6)” value with human Claudin 6 [9] amounted to 829000 RLU. Further, the “Inhibition Rate (%) (HEK293/H_CLDN6)” value with human Claudin 6 [10] amounted to 83.4%. The binding result with human Claudin 3 [13] is “no binding (tested: 100 nM (highest concentration tested))”. The “Top MFI” value with human Claudin 6 [11] came out at 321000; with human Claudin 6 [3] it was 2590.

B8: 83-F6A6 (antibody, V domains shown)
VH: QVQLQQSAPELARPGASVRMSCKASGYTFTTYTMHWVKQRPGQGLEWIGFIIPSSGYTEYNQNLKDKTTLTADKASSTAYMQLTSLTSEDSAVYYCARQFSLITTGFGYALDYWGQGTSVTVSS
VL: DIVMTQSRKFMSTSVGDRVSITCKASQDVSTAVAWYQQKPGQSPKLLLYWASTRHTGVPDRFTGSGSGTDYTLTISSVQAEDLALYYCQQHYSTPLTFGAGTKLELK
notes: Tested as chimeric antibody
On to B8, for which the “internalization Top RLU (HEK293/H_CLDN6)” value with human Claudin 6 [9] was determined as 710000 RLU. Moreover, the “Inhibition Rate (%) (HEK293/H_CLDN6)” value with human Claudin 6 [10] was determined as 78.6%. For the same molecule, the entries for the “Top MFI” value in the assay with human Claudin 6 [11], in the assay with human Claudin 9 [12] and with human Claudin 6 [3] were 258000, 23500 and 227, respectively.

These data come from patent US20240317851A1 (LANOVA MEDICINES, published 2024).
